B1: IRBP-1-68 polypeptide (SEQ ID NO:1) (peptide)
chain: SRCQGKSSWPQLVGSTGAAAKAVIERENPRVRAVIIKVGSGATKDFRCDRVRVWVTERGIVARPPTIG
B2: IRBP-LU (SEQ ID NO:188) (peptide)
peptide: VVTSVPHIT
notes: Homologue of IRBP-60-68 with several residues replaced; synthetic
B3: IRBP-VV-2 (SEQ ID NO:180) (peptide)
peptide: IVISVPTIG
notes: as for B2
B4: IRBP-CM (SEQ ID NO:184) (peptide)
peptide: LVVSPPRIG
notes: as for B2
B5: IRBP-CP (SEQ ID NO:186) (peptide)
peptide: KVIRVPRIG
notes: as for B2
B6: IRBP-VV-1 (SEQ ID NO:185) (peptide)
peptide: IVSMVPKIG
notes: as for B2
B7: IRBP-AT (SEQ ID NO:182) (peptide)
peptide: IVVRNPTAG
notes: as for B2
B8: IRBP-OS (SEQ ID NO:183) (peptide)
peptide: TVAKTPTIG
notes: as for B2
B9: IRBP-SN (SEQ ID NO:181) (peptide)
peptide: IVTRVPVIG
notes: as for B2
B10: IRBP-ZE (SEQ ID NO:187) (peptide)
peptide: IVIRTPIIT
notes: as for B2
B11: IRBP-MT (SEQ ID NO:179) (peptide)
peptide: IVYQVPTIG
notes: as for B2

Each binder was assayed against T1, insulin receptor on human lymphocyte cells (IM-9) (human, UniProt P06213 28-1382) (assay: whole cell receptor binding assay on IM-9 cells with 125I-insulin; EC50 defined as the concentration promoting 50% of the 125I-insulin to bind).
T1 construct: whole, on cells; Endogenous receptor of IM-9 cells; also called IR; insulin receptors
Protocol: (§1) After incubation, the cells were chilled, centrifuged at 2000 rpm for 10 min at 4° C., and the pellets were washed twice with an ice-cold wash buffer (10 mmol/L Tris and 150 mmol/L NaCl, pH 7.6). The pellet was counted by a gamma counter. The assays were performed at least three times for each polypeptide. […] The lower value of EC₅₀ represents a stronger effect on promoting the binding.

B1 was tested, and the EC50 was 4.15 nM.

The binders below were run against T1, insulin receptor on human lymphocyte … (assay: whole cell receptor binding assay on IM-9 cells with 125I-insulin; EC50 of promoting 125I-insulin binding).
Protocol: as §1

Compared with B2, B3 is 1.9-fold lower in EC50: 9.7 nM for the first, 4.98 nM for the second. The second is the more potent here.

B4 and B5 are within 1.5-fold of each other in EC50: 0.92 nM for the first, 0.84 nM for the second.

IVARPPAIG [IRBP-MC (SEQ ID NO:21)] and B6 are within 1.5-fold of each other in EC50: 0.86 nM for the first, 0.96 nM for the second.

B7 and B8 are within 1.5-fold of each other in EC50: 9.98 nM for the first, 9.93 nM for the second.

Compared with B9, B10 is 2-fold lower in EC50: 9.79 nM for the first, 4.94 nM for the second.

B11 showed an EC50 of 0.77 nM.

Molecular target: T1, insulin receptor on human lymphocyte …
Assay: as above
Remark: another data set of the same source

IVARPPTIG (synthetic) [IRBP-60-68 (SEQ ID NO:7)] and RVRVWVTERGIVARPPTIG [IRBP-50-68 (SEQ ID NO:6)] are within 1.5-fold of each other in EC50: 0.77 nM for the first, 0.73 nM for the second.

DFRCDRVRVWVTERGIVARPPTIG (synthetic) [IRBP-45-68 (SEQ ID NO:5)] and VIIKVGSGATKDFRCDRVR (synthetic) [IRBP-34-52 (SEQ ID NO:4)] cannot be ordered by EC50: > 25 nM for the first, > 25 nM for the second.

Binder SRCQGKSSWPGLVGSTGAA (synthetic) [IRBP-1-19 (SEQ ID NO:2)] has an EC50 of 15.3 nM.
